The values that follow come from patent US20220041650A1.

Experiment [1] addresses CH505TF4.1 SOSIP Trimer (HV1301189, CH505TF.6R.SOSIP.664.v4.1) (HIV-1). Description: SPR antibody binding; drug substance of the 50 L scale run.
Experiment [2] shares this target. Description: SPR antibody binding; drug substance of the 200 L scale run 1.
The target is the same in experiment [3]. Description: SPR antibody binding; drug substance of the 200 L scale run 2.

PGT145 (antibody): the Kd in experiment [1] came to 11 nM; in experiment [2] it was 11.3 nM; in experiment [3], 11.7 nM.
PGT151 (antibody): the values for the Kd in experiment [1], in experiment [2] and in experiment [3] were 17.5 nM, 16 nM and 13.1 nM, respectively.

By Kd is commonly meant the concentration at which binding is half-saturated.
